The values that follow come from a protein production outcome set (Wang et al. 2014).

The nature of this data set: label from the status in PepcDB records.

For “MNNPGLFQARWNLGKLVLCNLLPLALLGFWLWPTGQALCTVFDEWLFHHLNAPLASNSTWLHIWAVASLRPFDIVVGLIMLGLLIRGDWVFKAVDVRRAFFGFLSILILMVVIRALFSKLVAVMNWQHNSPSMVLEGAVHMSDYFPGWEKTWELKDRSSQSFPGDHASVLLIWGLFMGIFSRSIGQFLIVWGLTLLFMMPRLVAGAHWGQDDYIGGVLLAVLALGWGYYTPYAARMSNFLLRLTHPLFNLLSRMPVLSRMSVVRASSLLR”, the protein production result is given as “failed”. The entry for “MNNQSVDVDLITRFDNEAKLHALDSVYAIAEFDLAGKLIEANPLFCKMLGYKKEDIIQKSHTLFLPEAQRQKHDHFWHDVIKGNINAGEFQRKTQKGDIIWLHAAYTPIIDHSGRRIGVIKLALDITQEKRLMSEHRAQLDAIENAQGVIEFDKDGYITHVNKHYLILTGYEAKEILGLHHKSLCDPIYTEQADYQTFWETLHRGHPISGRFHRLGKGNHSFWIQATYSPVMDSDGNVRKIIKYAHNITQNVETEKKAHQQGIILDILLSVHDSFLLDHNLPSACDKVFERLLDVTNSSFGFIATLQEDEDGQSLYLPAISNLAWDEETLTWYRHQRRTHGGLRLRKLDNLFGHVVTHNTVVCTNSLLRQKAGRDLPPIHPALHSLLGIPITHNGKTVGMIALANRREGYDQTMIELLAPLVKTLGIIIHARLLEDERTQIEASLRFNAGHDFLTGLPNRSSFFEQASAFFLLRQQNQHADKSCLAIIDIDLFKNINDQFGHLAGDAVLKELAMLMRMSLRQEDLVARIGGEEFIILLKDVPYQTAVMAIERIRKAIEQHTLEYDRQNLNFTISAGIAAYRSDLASVEDWIQLADENLYAAKRQGRNCVK” is “failed”. In the case of “MNNRPQLIYILPNLFTAASAFLGVISIIASIHGNYYTALIYIILSLICDGLDGRVARLTNSTSKFGVEFDSLADLVAFGVAPAVLFYMAIGYDFGKLGSLITAFFVVFGAIRLARFNVTTGTYEPSVFIGLPIPTAAVVSAIWTYAFISYDFLKPYGVVFLVLQAILGLLMVSNIRYPSFKKLDFNRSSVLKVLIILIIIFSFLYLYPLESLVILASLYVLYGIIRVLYTIIVSKFKIRNQE”, the protein production entry was “failed”.

With “MNNSETPAPGPDSLLALAFPSDPQVSPDGKQVAFVLAQISEEDPAKPDKDFARPRYRSGLWLSEGGAARPLTHAETGRGDSAPRWSPDGQNLAFVRSAGEVKAALMLLPLKGGEARRVTHFKNGVSGPQWSPDGRFIAFTTTADTEDKRDERGEARVLTRPVYRANGADWLPERPAALWLYDVEADKLREWYAPEIGIGALSWWPDSRGVLIVQSEDEWQASQWRQDVYDLPLPTADAPAAPQKLLDWNSAAHGLAPHPDGQRFALIGRPAGKGNTEHAHLYLIENGQHRRLDTGHDHPVGDAVGGDCHVGAFPEGPRWLDGDTLLFSSTVRGSVGLFTAHIGGGVKAYDHDPQGVISAFTANEHGVALIRESATRFPEVELNGQRVTDLHARFPFPVREPQRVTFETELGEGEGWVLLPEGEQKVPALLNIHGGPHTDYGHGFTHEFQLMAARGYGVCYSNPRGSVGYGQAWVDAIYGRWGTVDADDLLNFFDRCLEAVPRLDAAKTAVMGGSYGGFMTNWITGHTTRFQAAITDRCISNLISFGGTSDIGLRFWDDELGLDFSRRADALKLWDLSPLQYVENVKTPTLIVHSVLDHRCPVEQAEQWYAALHKHQVPVRFVRFPEENHELSRSGRPDRRLTRLNEYFAWLERWL”, the protein production result is listed as “failed”. The entry for “MNNSINHKFHHISRAEYQELLAVSRGDAVADYIIDNVSILDLINGGEISGPIVIKGRYIAGVGAEYTDAPALQRIDARGATAVPGFIDAHLHIESSMMTPVTFETATLPRGLTTVICDPHEIVNVMGEAGFAWFARCAEQARQNQYLQVSSCVPALEGCDVNGASFTLEQMLAWRDHPQVTGLAEMMDYPGVISGQNALLDKLDAFRHLTLDGHCPGLGGKELNAYITAGIENCHESYQLEEGRRKLQLGMSLMIREGSAARNLNALAPLINEFNSPQCMLCTDDRNPWEIAHEGHIDALIRRLIEQHNVPLHVAYRVASWSTARHFGLNHLGLLAPGKQADIVLLSDARKVTVQQVLVKGEPIDAQTLQAEESARLAQSAPPYGNTIARQPVSASDFALQFTPGKRYRVIDVIHNELITHSHSSVYSENGFDRDDVSFIAVLERYGQRLAPACGLLGGFGLNEGALAATVSHDSHNIVVIGRSAEEMALAVNQVIQDGGGLCVVRNGQVQSHLPLPIAGLMSTDTAQSLAEQIDALKAAARECGPLPDEPFIQMAFLSLPVIPALKLTSQGLFDGEKFAFTTLEVTELEHHHHHH” is “not failed”; for “MNNVSEERVAEMIWDAVSEGATLKDVHGIPQDMMDGLYAHAYEFYNQGRLDEAETFFRFLCIYDFYNPDYTMGLAAVCQLKKQFQKACDLYAVAFTLLKNDYRPVFFTGQCQLLMRKAAKARQCFELVNERTEDESLRAKALVYLEALKTAETEQHSEQEKELEHHHHHH” it is “not failed”; for “MNNVSTRAPVRGTKTSLTLPNILTYARIAAIPVVVGCIFAQSILGGPLALRWVALAVFIAAAITDFLDGHFARIWDQQSAFGRMLDPIADKLLVASCLLMLAADSIIHGWTLWAAIVILCREILVSGLREYLAALRVSVPVTRLAKWKTTAQLVAIGFLLAGEAGDEVLPFTTEIGVSLLWLSALLTMYTGYDYFRAGIHHLIEEDQA” it is “failed”. The entry for “MNPADVTQLAPAVSTDVSLLSLFWHAHWVVKSIMLGLLGCSVWVWAIAIDKLLLFSRTKRAMDRFEQAFWSGESIDELYRALSAKPTHSMAACFVAAMREWKRSFESHSRSFAGLQMRIEKVMNVSIAREVERLERRLLVLATVGSAGPFVGLFGTVWGIMSSFQSIAASKNTSLAVVAPGIAEALFATAIGLIAAIPATIFYNKFTSEVNRQTQRLEGFADEFSAILSRQIDERT” is “failed”; for “MNPALVALGLTLFAGMATGIGSAIAFFARRTNFRFLSVATGFSAGVMVYVSFVEILPKGLDSLVRSCGESWGHWLNAASFFGGMLCIGLIDAVIPAAKNPHEIHADHEIAPLHDRSAPLPDFGSLAADPRCAPTGTHDHRPPQRHLLRMGLFTALAITIHNFPEGMATFLAALESPRVGAAIAVAIALHNIPEGVSVSVPIFYATGNRRKAFALSLLSGMAEPVGAAIGYLALLLFSGGASGAIPDQVTGALFGGVAGIMVYISLDELLPASRAYGKGHDSLLGLVGGMAVMALSLLLMK” it is “failed”. For “MNPCGIQRYQTQMYTQVSYDFRLSWSSGKRSASGFEAVGGAKMAEEKLGMKTQVPASIESQKPRPKKAPEFPIVEKLNWLIHLYYIRKDYEACKAVIKEQLQETQGLCEYAIYVQALIFRLEGNIQESLELFQTCAVLSPQCADNLKQVARSLFLLGKHKAATEVYNEAAKLNQKDWEICHNLGVCYTYLKQFSKAQDQLHSALQLNKHDLTYIMLGKIHLLQGDLDKAIEIYKKAVEFSPENTELLTTLGLLYLQLGVYQKAFEHLGNALTYDPANYKAILAAGSMMQTHGDFDVALTKYRVVACAIPESPPLWNNIGMCFFGKKKYVAAISCLKRANYLAPFDWKILYNLGLVHLTMQQYASAFHFLSAAINFQPKMGELYMLLAVALTNLEDIENAKRAYVEAVRLDKCNPLVNLNYAVLLYNQGEKKGALAQYQEMEKKVHFLKDNNPLEFDSEMVEMAQKLGAALQVGEALVWTKPVKDPKSKHRTNSGSKSATLQQPLGSFQALGQAMSSAAAHRKIPSGAVGAQLTKPPSLPLEPEPEPTVEASPTEASEQNKEK”, the protein production entry is “failed”. Take “MNPFKNFETRQVLEETCEVHGCQLWLTKVPIKGRLEELKQCPECTKAAINIFENKLNSQSKINSKLADTYAVFERDSLVSDKLRAKSLENYEIKDEIDQHAINYAKRMEQFYRQDRTGNAIITGPSGVGKSHLTYGLAKFMNEQFKAYESPKSVLFISLVSLFTKIKESFKVDNGYRQADMIELLTRVDYLFLDDLGKESRKGDSQNNEWTHQILYEILDNRSNTIINTNLSSKEIKALYADNYGNGALSSRILEGVTGNSFAYPKDMEDRRY”: the protein production result is on record as “failed”. The entry for “MNPLHLAAAFASGCLLTLMVHFNGQLAHYGNALFSSWTAHGTGTVAALIYLAIMRPKKDAAAPAKPNAPLWAYCGGVVGAAIVILTSTAVNSPLALSGTIALGLGGQVIFSLLADLFGLFGLPKRRPDVQDMVAVCLILCGSALIILVGRAA” is “failed”; for “MNPTFHADKPIYSQISDWMKKQMITGEWKGEDKLPSVREMGVKLAVNPNTVSRAYQELERAGYIYAKRGMGSFVTSDKALFDQLKKELADAITERFLEEAKSIGLDDQTAIELLIKRSRNHE” it is “not failed”. To “MNQHLLGNPKLTVTHVNEVKAGINHIVVDSVQYGNQEMIMEKDGTVEMRDGEKLYINIFRPNKDGKFPVVMSADTYGKDNKPKITNMGALWPTLGTIPTSSFTPEESPDPGFWVPNDYVVVKVALRGSDKSKGVLSPWSKREAEDYYEVIEWAANQSWSNGNIGTNGVSYLAVTQWWVASLNPPHLKAMIPWEGLNDMYREVAFHGGIPDTGFYRFWTQGIFARWTDNPNIEDLIQAQQEHPLFDDFWKQRQVPLSQIKTPLLTCASWSTQGLHNRGSFEGFKQAASEEKWLYVHGRKEWESYYARENLERQKSFFDFYLKEENNDWKDTPHVIYEVRDQFYKGEFKSASAFPLPNAEYTPLYLNAENHTLNHAKISSAHVAQYDSEDKQQDVSFKYTFDKDTELVGNMNLKLWVSTKDSDDMDLFAGIKKLDRRGNEVNFPDFNHIENGQVATGWLRVSHRELDQEKSSIAQPWHKHETELKLSQDEIVPVEIELLPSGTLFKQGETLEVVVKGSEIVIGNSTPGMKTRYEHEETVNKGMHMIYTGGKYDSQLIIPIVN” belongs “not failed”; to “MNQIAPRRFSGLRIVLLVLLAVLAFLLLMPTRVQPVAWNPAPAPSLSQGPFAENQKLKAVQPVGARDIDGPEALLLEHEQLLSGLHDGRVIQSSLDGSALKVLVNTGGRPLGLARHPDGRLIIADAIKGLLALDSQGQLQTLSTEANGLKFGFTDDVAVDAAGRYAYFSDATSRWGYGHDGEAVIEHGADGRLLRYDFQSGTTEVLLDRLEFANGIALGPDEAYVLVNETGAYRISRYWLKGDKAGSHDLFIDNLPGLPDNLSFNGAGRFWVALYAPRNPLLDATAPYPFVRKMLVRAMTVLPKPVEKRGFVLGLDTQGRVIANLQDGSSGNYSPITTVREYGDALYLGSLTARHMARLSLKEALAP”, “failed”. The entry for “MNQKISPPSQKLDGLFLLALSMAVFFVGVTEFMLSSMLGPLAQAFHTTTSGAAWLISSYAFSYAIAAPLLGYFSDRMQRRKLLLLALVLFAVDTLAIVIAPTLEIAVVLRVIGGIASAIIIPTTFALVAEVVAPQRQAGAMGQVMLGMTLGIAAGPALAGLLSDFFGWAAPFLLVSCGCVLVFLMARQRLPVQAVAPRAEGHALGWCRQWSILRPLIAKGAWNGTGVAGLLLSGEVLRQRYGFSTAQIGVSIAAFGVGLAVGNLAAGYLRRYLKRDEDMLLLVLALLVLSMSTFMLLPLPLPVALCCLGAWGAALGLGAPAGTVVLASRSGPDKGMVLSFAETFNNIAILASVPLAVRLLELKGPPATLWVLGIGLGIGAWFTVLDWFASRRSNEALPLRD” is “failed”; for “MNQKMIIGNAEAICLPELGITHLEARIDTGAQTSSLHVDNIDCFEKDGQSYVAFDLHPDVYHLEQVVRCTAKLKANRKVKSSNGTFEHRCVITTMLRLGDQEWPIDITLTNREKMTYMMLLGRQGMADKVLVDPSQSHLLAS” it is “not failed”.

Take “MNQLIFDFAAHDYPSFDKFLGTENAELVYVLRHKHGQFIYVWGEEGAGKSHLLQAWVAQALEAGKNAAYIDAASMPLTDAAFEAEYLAVDQVEKLGNEEQALLFSIFNRFRNSGKGFLLLGSEYTPQQLVIREDLRTRMAYCLVYEVKPLTDQEKIDALASMAAARQVTVDSEIFEYLLKHWRRDMDSLMMMLDTLDNYAVTMGKRITLPLLRQLLKQQETQLEHHHHHH”: the protein production entry was “not failed”.
